US20250353906A1 (FLAGSHIP PIONEERING INNOVATIONS VII, published 2025)

Assays:
[1] = molecular target: T1, DSG1 stably expressed on HEK-BLUE IL-10 cells (HEKBLUE IL-10/DSG1) (human, UniProt Q02413 50-1049); experiment: cell-based or functional assay
T1 sequence (looked up): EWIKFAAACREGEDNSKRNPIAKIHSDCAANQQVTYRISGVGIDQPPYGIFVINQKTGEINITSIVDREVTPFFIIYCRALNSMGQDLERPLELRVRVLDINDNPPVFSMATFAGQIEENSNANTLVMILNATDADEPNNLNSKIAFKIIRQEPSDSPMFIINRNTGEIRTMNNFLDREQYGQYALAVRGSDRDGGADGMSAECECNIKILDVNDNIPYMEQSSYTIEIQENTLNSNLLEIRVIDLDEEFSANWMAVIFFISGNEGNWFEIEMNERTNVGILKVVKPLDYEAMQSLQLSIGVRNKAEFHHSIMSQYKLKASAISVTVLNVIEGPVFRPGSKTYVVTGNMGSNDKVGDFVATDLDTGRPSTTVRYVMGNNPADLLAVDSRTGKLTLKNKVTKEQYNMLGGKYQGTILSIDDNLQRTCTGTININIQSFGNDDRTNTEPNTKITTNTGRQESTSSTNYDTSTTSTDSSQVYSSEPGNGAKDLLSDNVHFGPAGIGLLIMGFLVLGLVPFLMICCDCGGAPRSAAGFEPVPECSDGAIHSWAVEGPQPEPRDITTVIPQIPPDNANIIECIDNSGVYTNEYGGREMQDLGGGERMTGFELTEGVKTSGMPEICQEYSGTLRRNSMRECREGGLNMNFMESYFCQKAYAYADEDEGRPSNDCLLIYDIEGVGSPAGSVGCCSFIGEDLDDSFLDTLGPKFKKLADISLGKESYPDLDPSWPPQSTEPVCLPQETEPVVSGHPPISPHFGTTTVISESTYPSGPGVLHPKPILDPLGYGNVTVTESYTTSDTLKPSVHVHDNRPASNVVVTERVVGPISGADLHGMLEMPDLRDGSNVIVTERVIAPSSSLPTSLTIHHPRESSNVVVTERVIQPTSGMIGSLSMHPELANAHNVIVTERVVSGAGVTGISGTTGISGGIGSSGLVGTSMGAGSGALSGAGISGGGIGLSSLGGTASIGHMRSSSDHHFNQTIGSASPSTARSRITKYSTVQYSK

[2] = molecular target: T2, recombinant His-tagged murine RAGE protein (ab276858 from Abcam) (mouse, UniProt Q62151 23-340, limits assumed); experiment: BLI, ANDbody on anti-human IgG Fc biosensors, murine RAGE at 150 nM then murine Notch2 NRR at 150 nM
T2 construct: His tag; also called murine RAGE antigen
Protocol: To test simultaneous dual antigen binding of the Notch2/RAGE ANDbodies by BLI, PRO051, PRO052 and PRO053, along with monovalent parental antibody controls were immobilized on anti-human IgG Fc biosensors and dipped into the recombinant His-tagged murine RAGE protein at 150 nM, followed by a second association step into wells containing recombinant murine Notch2 NRR at 150 nM to measure dual antigen binding. The dissociation rate was then measured by dipping the biosensors into buffer.

[3] = molecular target: T3, recombinant His-tagged human IL-10Ra (Creative Biomart) (human, UniProt Q13651 22-235); experiment: ELISA on coated His-tagged human IL-10Ra, serial dilution from 30 µg/mL
T3 construct: His tag; also called IL-10 receptor alpha
T3 sequence (looked up): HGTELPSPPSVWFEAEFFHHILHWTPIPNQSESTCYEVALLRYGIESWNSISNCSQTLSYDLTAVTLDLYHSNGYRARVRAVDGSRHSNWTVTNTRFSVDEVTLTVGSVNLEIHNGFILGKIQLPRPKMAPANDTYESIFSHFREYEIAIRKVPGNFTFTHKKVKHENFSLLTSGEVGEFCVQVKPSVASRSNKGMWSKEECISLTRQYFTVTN
Protocol: To test the binding of the IL-10/anti-DSG1 ANDbodies to IL-10 receptor alpha (IL-10Ra) by ELISA, recombinant His-tagged human IL-10Ra (Creative Biomart) was coated on NUNC-IMMUNO™ MAXISORP™ ELISA plates at 1 μg/mL concentration overnight. The next day, coated antigen was removed and the wells were blocked with 1% IgG-free BSA followed by incubation with 11 three-fold serially diluted anti-IL-10/anti-DSG1 ANDbodies (as provided above) with a starting concentration of 30 μg/mL. Bound antibody was detected with peroxidase-conjugated anti-human IgG antibodies with TMB and acid stop reagents.

T2 sequence (Q62151 23-340 limits assumed): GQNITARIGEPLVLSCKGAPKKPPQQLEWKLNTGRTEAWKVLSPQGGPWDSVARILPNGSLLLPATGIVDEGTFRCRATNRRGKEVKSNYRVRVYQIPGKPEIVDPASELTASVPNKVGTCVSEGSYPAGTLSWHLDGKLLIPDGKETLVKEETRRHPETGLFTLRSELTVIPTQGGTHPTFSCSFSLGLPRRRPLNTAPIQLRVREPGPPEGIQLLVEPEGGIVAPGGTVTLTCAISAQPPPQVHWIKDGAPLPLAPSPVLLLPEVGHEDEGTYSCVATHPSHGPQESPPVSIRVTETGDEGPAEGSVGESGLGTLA

B1: PRO058 (other)
heavy: EVQLVESGGGLVQPGRSLRLSCAASGFTFDDYAMHWVRQAPGKGLEWVSGISWNSGSIDYADSVKGRFTISRDNAKNSLYLQMNSLRVEDTALYYCAKDGSRVFGVGGGFDFWGQGTMVTVSSASTKGPSVFPLAPSSKSTSGGTAALGCLVKDYFPEPVTVSWNSGALTSGVHTFPAVLQSSGLYSLSSVVTVPSSSLGTQTYICNVNHKPSNTKVDKKVEPKSCDKTHTCPPCPAPEAAGGPSVFLFPPKPKDTLMISRTPEVTCVVVDVSHEDPEVKFNWYVDGVEVHNAKTKPREEQYNSTYRVVSVLTVLHQDWLNGKEYKCKVSNKALGAPIEKTISKAKGQPREPQVYTLPPSRDELTKNQVKLTCLVKGFYPSDIAVEWESNGQPENNYKTTPPVLDSDGSFFLYSSLTVDKSRWQQGNVFSCSVMHEALHNHYTQKSLSLSPG
light: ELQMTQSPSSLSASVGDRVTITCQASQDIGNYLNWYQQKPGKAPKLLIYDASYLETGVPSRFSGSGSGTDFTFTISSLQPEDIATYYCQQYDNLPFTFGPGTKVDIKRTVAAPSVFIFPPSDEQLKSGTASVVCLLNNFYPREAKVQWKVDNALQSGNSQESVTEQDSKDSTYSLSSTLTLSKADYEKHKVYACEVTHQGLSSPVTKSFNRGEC
chain: SPGQGTQSENSCTHFPGNLPNMLRDLRDAFSRVKTFFQMKDQLDNLLLKESLLEDFKGYLGCQALSEMIQFYLEEVMPQAENQDPDIKAHVNSLGENLKTLRLRLRRCHRFLPCENGGGSGGKSKAVEQVKNAFNKLQEKGIYKAMSEFDIFINYIEAYMTMKIRNGGGGSGGGGSDKTHTCPPCPAPEAAGGPSVFLFPPKPKDTLMISRTPEVTCVVVDVSHEDPEVKFNWYVDGVEVHNAKTKPREEQYNSTYRVVSVLTVLHQDWLNGKEYKCKVSNKALGAPIEKTISKAKGQPREPQVYTLPPSRDELTKNQVSLTCLVSGFYPSDIAVEWESNGQPENNYKTTPPVLDSDGSFKLYSKLTVDKSRWQQGNVFSCSVMHEALHNRFTQKSLSLSPG
For B1, the “increase in potency of IL-10 signaling (SEAP, HEK-BLUE IL-10 cells) when DSG1 was expressed on the target cells” value [1] was about 15 fold.

B2: PRO052 (bispecific antibody)
heavy 1: not shown
light 1: DIQMTQSPSSLSASVGDRVTITCRASQSNRRFLAWYQQKPGKAPKLLIYGASSRASGVPSRFSGSGSGTDFTLTISSLQPEDFATYYCQQYYISPLTFGQGTKVEIKRTVAAPSVFIFPPSDEQLKSGTASVVCLLNNFYPREAKVQWKVDNALQSGNSQESVTEQDSKDSTYSLSSTLTLSKADYEKHKVYACEVTHQGLSSPVTKSFNRGEC
heavy 2: not shown
light 2: DIQMTQSPSSLSASVGDRVTITCRASQDVGIYVNWFQQKPGKAPRRLIYRATNLADGVPSRFSGSRSGTDFTLTISSLQPEDFATYYCLEFDEHPLTFGGGTKVEIKRTVAAPSVFIFPPSDEQLKSGTASVVCLLNNFYPREAKVQWKVDNALQSGNSQESVTEQDSKDSTYSLSSTLTLSKADYEKHKVYACEVTHQGLSSPVTKSFNRGEC
notes: Made by controlled Fab arm exchange from PRO035 (K409R) and PRO002 (F405L); also called Notch2/RAGE ANDbody PRO052; copies: 1 + 1 + 1 + 1
B2: binds [2].

B3: PRO051 (bispecific antibody)
heavy 1: not shown
light 1: not shown
heavy 2: not shown
light 2: DIQMTQSPSSLSASVGDRVTITCRASQDVGIYVNWFQQKPGKAPRRLIYRATNLADGVPSRFSGSRSGTDFTLTISSLQPEDFATYYCLEFDEHPLTFGGGTKVEIKRTVAAPSVFIFPPSDEQLKSGTASVVCLLNNFYPREAKVQWKVDNALQSGNSQESVTEQDSKDSTYSLSSTLTLSKADYEKHKVYACEVTHQGLSSPVTKSFNRGEC
notes: Made by controlled Fab arm exchange from PRO034 (K409R) and PRO002 (F405L); Signal peptides left out as for the parents; also called Notch2/RAGE ANDbody PRO051; RAGE-targeting ANDbody; copies: 1 + 1 + 1 + 1
B3: binds [2].

B4: PRO053 (bispecific antibody)
heavy 1: not shown
light 1: DIQMTQSPSSLSASVGDRVTITCRASQSVRSFLAWYQQKPGKAPKLLIYRASIRASGVPSRFSGSGSGTDFTLTISSLQPEDFATYYCQQYYISPWTFGQGTKVEIKRTVAAPSVFIFPPSDEQLKSGTASVVCLLNNFYPREAKVQWKVDNALQSGNSQESVTEQDSKDSTYSLSSTLTLSKADYEKHKVYACEVTHQGLSSPVTKSFNRGEC
heavy 2: not shown
light 2: DIQMTQSPSSLSASVGDRVTITCRASQDVGIYVNWFQQKPGKAPRRLIYRATNLADGVPSRFSGSRSGTDFTLTISSLQPEDFATYYCLEFDEHPLTFGGGTKVEIKRTVAAPSVFIFPPSDEQLKSGTASVVCLLNNFYPREAKVQWKVDNALQSGNSQESVTEQDSKDSTYSLSSTLTLSKADYEKHKVYACEVTHQGLSSPVTKSFNRGEC
notes: Made by controlled Fab arm exchange from PRO036 (K409R) and PRO002 (F405L); also called Notch2/RAGE ANDbody PRO053; copies: 1 + 1 + 1 + 1
B4: binds [2].

B5: IL-10 Fc (Creative Biomart IL10-326H) (Fc fusion, human, UniProt P22301 19-178, looked up)
chain: SPGQGTQSENSCTHFPGNLPNMLRDLRDAFSRVKTFFQMKDQLDNLLLKESLLEDFKGYLGCQALSEMIQFYLEEVMPQAENQDPDIKAHVNSLGENLKTLRLRLRRCHRFLPCENKSKAVEQVKNAFNKLQEKGIYKAMSEFDIFINYIEAYMTMKIRN
notes: Bought reagent; also called positive control IL-10 Fc; hIL-10 Fc fusion; not shown: human Fc domain
B5: binds [3].
